Experimental data: patent publication US20250333506A1 (NEW YORK UNIVERSITY, published 2025)
Read-outs that look alike come from different tables or passages of the source. One block for each binder: values may come before it.

Columns and labels:
Cyno D2 [1] = molecular target: T1, Cyno D2 (biotinylated (AviTag)); test: bead binding assay: biotinylated TCR-Fc on streptavidin beads, IgG titrated, flow cytometry
T1 construct: also called cynomolgus Gamma/Delta2; Cyno D2/G
T1 delta chain: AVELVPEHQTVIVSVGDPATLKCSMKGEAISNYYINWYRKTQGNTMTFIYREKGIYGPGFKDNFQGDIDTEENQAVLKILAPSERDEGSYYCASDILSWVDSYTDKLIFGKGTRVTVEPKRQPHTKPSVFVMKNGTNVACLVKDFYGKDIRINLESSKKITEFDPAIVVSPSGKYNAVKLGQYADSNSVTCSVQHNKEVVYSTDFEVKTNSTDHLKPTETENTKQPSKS
T1 gamma chain: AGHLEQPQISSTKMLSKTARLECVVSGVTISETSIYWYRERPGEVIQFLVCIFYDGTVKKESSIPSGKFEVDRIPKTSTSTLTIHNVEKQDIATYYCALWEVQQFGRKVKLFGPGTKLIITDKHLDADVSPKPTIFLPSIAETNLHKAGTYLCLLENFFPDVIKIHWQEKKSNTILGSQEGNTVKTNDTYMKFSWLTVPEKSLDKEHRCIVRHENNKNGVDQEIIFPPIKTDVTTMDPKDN

[2] = molecular target: T2, cynomolgus Gamma/Delta1A TCR-Fc fusion protein (cynomolgus monkey, biotinylated in vitro with recombinant BirA (AviTag)); test: bead binding assay (TCR-Fc on streptavidin beads, IgG titrated, flow cytometry); apparent KD, s.d. of triplicates
T2 construct: First chain = delta, second = gamma; also called Cyno D1; cyno D1; not shown: Fc portion of mouse IgG, then AviTag and His6 tag at the C-terminus; Fc portion of mouse IgG

[3] = molecular target: T2, cynomolgus Gamma/Delta1A TCR-Fc fusion …; test: bead binding assay (TCR-Fc on streptavidin beads, IgG titrated, flow cytometry); apparent KD
Cyno D2 [4] = molecular target: T1, Cyno D2; test: bead binding assay: biotinylated TCR-Fc on streptavidin beads, IgG titrated, flow cytometry
Cyno D2 [5] = molecular target: T1, Cyno D2; test: as above
[6] = molecular target: T2, cynomolgus Gamma/Delta1A TCR-Fc fusion …; test: as above
[7] = molecular target: T2, cynomolgus Gamma/Delta1A TCR-Fc fusion …; test: as above; remark: listed apart in the source
[8] = molecular target: T2, cynomolgus Gamma/Delta1A TCR-Fc fusion …; test: as above; remark: listed apart in the source
[9] = molecular target: T2, cynomolgus Gamma/Delta1A TCR-Fc fusion …; test: as above; remark: listed apart in the source
[10] = molecular target: T2, cynomolgus Gamma/Delta1A TCR-Fc fusion …; test: as above; remark: listed apart in the source
[11] = molecular target: T2, cynomolgus Gamma/Delta1A TCR-Fc fusion …; test: as above; remark: listed apart in the source
[12] = molecular target: T3, cynomolgus monkey Delta1 Fc fusion protein (Delta1 clone not stated); test: bead binding assay: Fc fusion proteins on streptavidin-coated beads, IgG titrated, flow cytometry
T3 construct: also called monkey (cyno) delta-1 chain; monkey Delta1 receptors

[13] = molecular target: T4, human Delta1 TCR (Fc fusion protein, Delta1 clone and gamma chain not stated); test: as above
T4 construct: also called Human Delta1 Fc fusion protein; human delta-1 chain

[14] = molecular target: T4, human Delta1 TCR (Fc fusion protein, …); test: bead binding titration, flow cytometry (MFI against antibody concentration)
Cyno D2 [15] = molecular target: T1, Cyno D2; test: bead binding assay: biotinylated TCR-Fc on streptavidin beads, IgG titrated, flow cytometry
[16] = molecular target: T4, human Delta1 TCR (Fc fusion protein, …); test: SPR: biotinylated TCR on a neutravidin-loaded Avicap chip, IgG flowed (OneStep, Pioneer instrument)
Cyno D2 [17] = molecular target: T1, Cyno D2; test: bead binding assay: biotinylated TCR-Fc on streptavidin beads, IgG titrated, flow cytometry
Cyno D2 [18] = molecular target: T1, Cyno D2; test: as above

- EC50 (read off the curve) [6]: ~2 nM
B4: Delta1-33 (antibody, V domains shown)
VH: EVQLVESGGGLVQPGGSLRLSCAASGFTFSSSSIHWVRQAPGKGLEWVASIYSSSGYTYYADSVKGRFTISADTSKNTAYLQMNSLRAEDTAVYYCARDPGSYYWYYSGSAYEGYGLDYWGQGTLVTVSS
VL: DIQMTQSPSSLSASVGDRVTITCRASQSVSSAVAWYQQKPGKAPKLLIYAASSLQSGVPSRFSGSRSGTDFTLTISSLQPEDFATYYCQQQSKYPFLITFGQGTKVEIKR
notes: also called anti-Delta1-33

- EC50 (read off the curve) [8]: ~3 nM
B6: Delta1-36 (antibody, V domains shown)
VH: EVQLVESGGGLVQPGGSLRLSCAASGFTFSSNDIHWVRQAPGKGLEWVASIYSSSGYTYYADSVKGRFTISADTSKNTAYLQMNSLRAEDTAVYYCARDPGSYYWYYSGSAYEGYGLDYWGQGTLVTVSS
VL: DIQMTQSPSSLSASVGDRVTITCRASQSVSSAVAWYQQKPGKAPKLLIYAASSLQSGVPSRFSGSRSGTDFTLTISSLQPEDFATYYCQQQSKYPFLITFGQGTKVEIKR
notes: also called anti-Delta1-36

- EC50 (read off the curve) [9]: ~2 nM
B7: Delta1-37 (antibody, V domains shown)
VH: EVQLVESGGGLVQPGGSLRLSCAASGFTFTGSSIHWVRQAPGKGLEWVASIYSSSGYTYYADSVKGRFTISADTSKNTAYLQMNSLRAEDTAVYYCARDPGSYYWYYSGSAYEGYGLDYWGQGTLVTVSS
VL: DIQMTQSPSSLSASVGDRVTITCRASQSVSSAVAWYQQKPGKAPKLLIYAASSLQSGVPSRFSGSRSGTDFTLTISSLQPEDFATYYCQQQSKYPFLITFGQGTKVEIKR
notes: also called anti-Delta1-37

- EC50 (read off the curve) [11]: ~2 nM
B9: Delta1-40 (antibody, V domains shown)
VH: EVQLVESGGGLVQPGGSLRLSCAASGFTFTSSSIHWVRQAPGKGLEWVASIYSSSGYTYYADSVKGRFTISADTSKNTAYLQMNSLRAEDTAVYYCARDPGSYYWYYSGSAYEGYGLDYWGQGTLVTVSS
VL: DIQMTQSPSSLSASVGDRVTITCRASQSVSSAVAWYQQKPGKAPKLLIYAASSLQSGVPSRFSGSRSGTDFTLTISSLQPEDFATYYCQQQSKYPFLITFGQGTKVEIKR
notes: also called anti-Delta1-40

The remaining lines, values behind:

B1: Delta1-19 (antibody, V domains shown)
VH: EVQLVESGGGLVQPGGSLRLSCAASGFTVSSSSIHWVRQAPGKGLEWVASIYSSSGYTYYADSVKGRFTISADTSKNTAYLQMNSLRAEDTAVYYCARDPGSYYWYYSGSAYEGYGLDYWGQGTLVTVSS
VL: DIQMTQSPSSLSASVGDRVTITCRASQSVSSAVAWYQQKPGKAPKLLIYAASSLQSGVPSRFSGSRSGTDFTLTISSLQPEDFATYYCQQMDRFYSLITFGQGTKVEIKR
notes: Tested in the human IgG format
- binding result (Cyno D2 [1]): binds
- Kd [2]: 0.25 nM

B2: Delta1-27 (antibody, V domains shown)
VH: EVQLVESGGGLVQPGGSLRLSCAASGFTVSSSSIHWVRQAPGKGLEWVASIYSSSGYTYYADSVKGRFTISADTSKNTAYLQMNSLRAEDTAVYYCARDPGSYYWYYSGSAYEGYGLDYWGQGTLVTVSS
VL: DIQMTQSPSSLSASVGDRVTITCRASQSVSSAVAWYQQKPGKAPKLLIYAASSLQSGVPSRFSGSRSGTDFTLTISSLQPEDFATYYCQQSSRNSKLITFGQGTKVEIKR
notes: as for B1
- Kd [3]: 0.78 nM
- binding result (Cyno D2 [4]): no binding (tested: 100 nM)

B3: Delta1-28 (antibody, V domains shown)
VH: EVQLVESGGGLVQPGGSLRLSCAASGFTVSSSSIHWVRQAPGKGLEWVASIYSSSGYTYYADSVKGRFTISADTSKNTAYLQMNSLRAEDTAVYYCARDPGSYYWYYSGSAYEGYGLDYWGQGTLVTVSS
VL: DIQMTQSPSSLSASVGDRVTITCRASQSVSSAVAWYQQKPGKAPKLLIYAASSLQSGVPSRFSGSRSGTDFTLTISSLQPEDFATYYCQQWMRSSSLFTFGQGTKVEIKR
notes: as for B1
- binding result (Cyno D2 [5]): no binding (tested: 100 nM)
- Kd [2]: 0.36 nM

B5: Delta1-34 (antibody, V domains shown)
VH: EVQLVESGGGLVQPGGSLRLSCAASGFTFSGTDIHWVRQAPGKGLEWVASIYSSSGYTYYADSVKGRFTISADTSKNTAYLQMNSLRAEDTAVYYCARDPGSYYWYYSGSAYEGYGLDYWGQGTLVTVSS
VL: DIQMTQSPSSLSASVGDRVTITCRASQSVSSAVAWYQQKPGKAPKLLIYAASSLQSGVPSRFSGSRSGTDFTLTISSLQPEDFATYYCQQQSKYPFLITFGQGTKVEIKR
notes: also called anti-Delta1-34
- EC50 (read off the curve) [7]: ~3 nM

B8: Delta1-38 (antibody, V domains shown)
VH: EVQLVESGGGLVQPGGSLRLSCAASGFTFTSSDIHWVRQAPGKGLEWVASIYSSSGYTYYADSVKGRFTISADTSKNTAYLQMNSLRAEDTAVYYCARDPGSYYWYYSGSAYEGYGLDYWGQGTLVTVSS
VL: DIQMTQSPSSLSASVGDRVTITCRASQSVSSAVAWYQQKPGKAPKLLIYAASSLQSGVPSRFSGSRSGTDFTLTISSLQPEDFATYYCQQQSKYPFLITFGQGTKVEIKR
notes: also called anti-Delta1-38
- EC50 (read off the curve) [10]: ~3 nM

B10: Delta1-41 (antibody, V domains shown)
VH: EVQLVESGGGLVQPGGSLRLSCAASGFTFSANDIHWVRQAPGKGLEWVASIYSSSGYTYYADSVKGRFTISADTSKNTAYLQMNSLRAEDTAVYYCARDPGSYYWYYSGSAYEGYGLDYWGQGTLVTVSS
VL: DIQMTQSPSSLSASVGDRVTITCRASQSVSSAVAWYQQKPGKAPKLLIYAASSLQSGVPSRFSGSRSGTDFTLTISSLQPEDFATYYCQQQSKYPFLITFGQGTKVEIKR
notes: Tested in the human IgG format; also called anti-Delta1-41
- EC50 (read off the curve) [12]: ~2 nM
- EC50 (read off the curve) [13]: 2 to 3 nM
- EC50 (read off the curve) [14]: ~1 nM
- Kd [3]: 2.7 nM

B11: Delta1-30 (antibody, V domains shown)
VH: EVQLVESGGGLVQPGGSLRLSCAASGFTVSSSSIHWVRQAPGKGLEWVASIYSSSGYTYYADSVKGRFTISADTSKNTAYLQMNSLRAEDTAVYYCARDPGSYYWYYSGSAYEGYGLDYWGQGTLVTVSS
VL: DIQMTQSPSSLSASVGDRVTITCRASQSVSSAVAWYQQKPGKAPKLLIYSASSLYSGVPSRFSGSRSGTDFTLTISSLQPEDFATYYCQQSGDDLITFGQGTKVEIKR
- binding result (Cyno D2 [15]): no binding (tested: 100 nM)

B12: Delta1-17 (antibody, V domains shown)
VH: EVQLVESGGGLVQPGGSLRLSCAASGFTVSSSSIHWVRQAPGKGLEWVASIYSSSGYTYYADSVKGRFTISADTSKNTAYLQMNSLRAEDTAVYYCARDPGMYYWYYSGSAYEGYGLDYWGQGTLVTVSS
VL: DIQMTQSPSSLSASVGDRVTITCRASQSVSSAVAWYQQKPGKAPKLLIYSASSLYSGVPSRFSGSRSGTDFTLTISSLQPEDFATYYCQQSGDDLITFGQGTKVEIKR
notes: also called anti-Delta1-17; Delta-17
- Kd [16]: 4.6 nM
- EC50 (read off the curve) [14]: ~0.5 nM
- binding result (Cyno D2 [17]): no binding (tested: 100 nM)
- Kd [3]: 13.7 nM

B13: Delta1-29 (antibody, V domains shown)
VH: EVQLVESGGGLVQPGGSLRLSCAASGFTVSSSSIHWVRQAPGKGLEWVASIYSSSGYTYYADSVKGRFTISADTSKNTAYLQMNSLRAEDTAVYYCARDPGSYYWYYSGSAYEGYGLDYWGQGTLVTVSS
VL: DIQMTQSPSSLSASVGDRVTITCRASQSVSSAVAWYQQKPGKAPKLLIYAASSLQSGVPSRFSGSRSGTDFTLTISSLQPEDFATYYCQQSGDDLITFGQGTKVEIKR
notes: as for B1
- Kd [3]: 30.4 nM
- binding result (Cyno D2 [18]): no binding (tested: 100 nM)
